From patent US20110098217A1 (INDIANA UNIVERSITY RESEARCH AND TECHNOLOGY, published 2011)
Read-outs that look alike come from different tables or passages of the source. Numbered stars: 1 amine (or outer) side, 2 acyl side, 3 side chain; on linkers, the order of the positions; unused ones are H or OH. Bridge positions count the residues as written; N and C are the ends. Square brackets hold non-standard residues; d marks the D form. Ends that are not written are not given here. CSA‑2 = Cys(S-CH2CH2COOH), S-(2-carboxyethyl)-L-cysteine, O=C([C@H](CSCCC(=O)[*:3])N[*:1])[*:2]; CSA‑1 = Cys(S-CH2COOH), S-carboxymethyl-L-cysteine, O=C([C@H](CSCC(=O)[*:3])N[*:1])[*:2]; Abu(4-SO3H) = N[C@@H](CCS(=O)(=O)O)C(=O)O; PhLac = O=C(O)[C@@H](O)Cc1ccccc1; NSG‑1 = not defined here; NSG‑2 = not defined here

Columns and labels:
[1] = molecular target: human glucagon receptor (human) (UniProt P47871); assay: cell-based or functional assay
human glucagon receptor [2] = molecular target: T1, human glucagon receptor (human, UniProt P47871 26-477); assay: SPA competition vs 125I-glucagon, receptor membranes
T1 construct: whole, on cells; cAMP assay: transfected HEK293 cells

human glucagon receptor [3] = molecular target: T1, human glucagon receptor; assay: cell-based or functional assay
human glucagon receptor [4] = molecular target: T1, human glucagon receptor; assay: SPA competition vs 125I-glucagon, receptor membranes; remark: listed apart in the source
human GLP-1 receptor [5] = molecular target: T2, human GLP-1 receptor (human, UniProt P43220 24-463); assay: cell-based or functional assay
human GLP-1 receptor [6] = molecular target: T2, human GLP-1 receptor; assay: cell-based or functional assay; remark: listed apart in the source
human glucagon receptor [7] = molecular target: T1, human glucagon receptor; assay: cell-based or functional assay; remark: listed apart in the source
human glucagon receptor [8] = molecular target: T1, human glucagon receptor; assay: cell-based or functional assay; remark: listed apart in the source
human glucagon receptor [9] = molecular target: T1, human glucagon receptor; assay: cell-based or functional assay; remark: listed apart in the source
human glucagon receptor [10] = molecular target: T1, human glucagon receptor; assay: cell-based or functional assay; remark: listed apart in the source
human glucagon receptor [11] = molecular target: T1, human glucagon receptor; assay: cell-based or functional assay; remark: listed apart in the source
[12] = molecular target: human GLP-1 receptor (human) (UniProt P43220); assay: cell-based or functional assay
[13] = molecular target: human glucagon receptor (human) (UniProt P47871); assay: cell-based or functional assay; remark: listed apart in the source
human glucagon receptor [14] = molecular target: T1, human glucagon receptor; assay: cell-based or functional assay; remark: listed apart in the source

Chain of human glucagon receptor (human) (P47871 26-477): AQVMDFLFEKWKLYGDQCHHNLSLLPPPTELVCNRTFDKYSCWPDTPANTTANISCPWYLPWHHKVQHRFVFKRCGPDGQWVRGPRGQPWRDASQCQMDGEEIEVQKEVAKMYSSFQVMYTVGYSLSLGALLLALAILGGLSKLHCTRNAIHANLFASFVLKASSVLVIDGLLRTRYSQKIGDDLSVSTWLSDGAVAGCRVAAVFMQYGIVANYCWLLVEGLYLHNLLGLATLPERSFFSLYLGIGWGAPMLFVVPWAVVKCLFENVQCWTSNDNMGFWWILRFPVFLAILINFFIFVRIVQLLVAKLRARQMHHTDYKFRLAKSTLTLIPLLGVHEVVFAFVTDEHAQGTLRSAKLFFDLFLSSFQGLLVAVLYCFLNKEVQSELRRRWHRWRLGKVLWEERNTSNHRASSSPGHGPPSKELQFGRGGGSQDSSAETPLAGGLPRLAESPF
T1 sequence (P47871 26-477): as above
Chain of human GLP-1 receptor (human) (P43220 24-463): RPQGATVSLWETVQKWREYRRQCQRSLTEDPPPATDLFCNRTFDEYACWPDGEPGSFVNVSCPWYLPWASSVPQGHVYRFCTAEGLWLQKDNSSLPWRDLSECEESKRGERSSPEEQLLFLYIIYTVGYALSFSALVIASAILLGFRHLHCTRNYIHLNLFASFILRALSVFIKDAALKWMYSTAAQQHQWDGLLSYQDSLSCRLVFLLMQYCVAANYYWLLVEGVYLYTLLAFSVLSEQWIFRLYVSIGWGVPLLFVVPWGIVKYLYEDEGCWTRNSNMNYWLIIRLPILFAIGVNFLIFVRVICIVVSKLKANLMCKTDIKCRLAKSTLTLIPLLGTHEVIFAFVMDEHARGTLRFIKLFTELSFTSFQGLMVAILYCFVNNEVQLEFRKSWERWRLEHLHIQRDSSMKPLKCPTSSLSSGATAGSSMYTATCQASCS

[PLA6, E9, E16K20(Lactam)]G(6-39) (peptide)
Glucagon antagonism IC50 (inhibit 0.2-0.8 nM glucagon) [1]: 20.5 nM

SQGTFTSXYSKYLDSRRAQDFVQWLMNT (homoglutamic acid (hGlu) at position 9; C-terminal amide, also called peptide no) [[hGlu^9] Glucagon(aa2-29)-NH2]
IC50 (human glucagon receptor [2]): 8.1 nM

B1: [desHis^1, hCys^9(SO3-), Phe^25, Leu^27] Glucagon-NH2 (peptide)
peptide: SQGTFTS[Abu(4-SO3H)]YSKYLDSRRAQDFVQFLLNT-NH2
modifications: N-terminus assumed
SMILES: CC(C)C[C@H](NC(=O)[C@H](Cc1ccc(O)cc1)NC(=O)[C@H](CCCCN)NC(=O)[C@H](CO)NC(=O)[C@H](Cc1ccc(O)cc1)NC(=O)[C@H](CCS(=O)(=O)O)NC(=O)[C@H](CO)NC(=O)[C@@H](NC(=O)[C@H](Cc1ccccc1)NC(=O)[C@@H](NC(=O)CNC(=O)[C@H](CCC(N)=O)NC(=O)[C@@H](N)CO)[C@@H](C)O)[C@@H](C)O)C(=O)N[C@@H](CC(=O)O)C(=O)N[C@@H](CO)C(=O)N[C@@H](CCCNC(=N)N)C(=O)N[C@@H](CCCNC(=N)N)C(=O)N[C@@H](C)C(=O)N[C@@H](CCC(N)=O)C(=O)N[C@@H](CC(=O)O)C(=O)N[C@@H](Cc1ccccc1)C(=O)N[C@H](C(=O)N[C@@H](CCC(N)=O)C(=O)N[C@@H](Cc1ccccc1)C(=O)N[C@@H](CC(C)C)C(=O)N[C@@H](CC(C)C)C(=O)N[C@@H](CC(N)=O)C(=O)N[C@H](C(N)=O)[C@@H](C)O)C(C)C
notes: also called Cmpd; 4B
cAMP Induction EC50 (human glucagon receptor [3]): 430 nM
IC50 (human glucagon receptor [4]): 13.9 nM

SQGTFTS[NSG‑2]YSKYLDSRRAQDFVQWLMNT-NH2 (reading uncertain, also called peptide no) [[(NSG-2)^9] Glucagon(aa2-29)-NH2]
IC50 (human glucagon receptor [2]): 2350 nM

HSQGTFTSDYARYLDARRAREFIKWLVRGRG [ANK2 (Bayer peptide)]
GLP-1 EC50 (human GLP-1 receptor [5]): 0.28 nM
GLP-1 agonism EC50 (human GLP-1 receptor [6]): 0.28 nM

B2: [(CSA-2)^9] Glucagon(aa2-29)-NH2 (peptide)
peptide: SQGTFTS[CSA‑2]YSKYLDSRRAQDFVQWLMNT-NH2
modifications: N-terminus assumed
SMILES: CSCC[C@H](NC(=O)[C@H](CC(C)C)NC(=O)[C@H](Cc1c[nH]c2ccccc12)NC(=O)[C@H](CCC(N)=O)NC(=O)[C@@H](NC(=O)[C@H](Cc1ccccc1)NC(=O)[C@H](CC(=O)O)NC(=O)[C@H](CCC(N)=O)NC(=O)[C@H](C)NC(=O)[C@H](CCCNC(=N)N)NC(=O)[C@H](CCCNC(=N)N)NC(=O)[C@H](CO)NC(=O)[C@H](CC(=O)O)NC(=O)[C@H](CC(C)C)NC(=O)[C@H](Cc1ccc(O)cc1)NC(=O)[C@H](CCCCN)NC(=O)[C@H](CO)NC(=O)[C@H](Cc1ccc(O)cc1)NC(=O)[C@H](CSCCC(=O)O)NC(=O)[C@H](CO)NC(=O)[C@@H](NC(=O)[C@H](Cc1ccccc1)NC(=O)[C@@H](NC(=O)CNC(=O)[C@H](CCC(N)=O)NC(=O)[C@@H](N)CO)[C@@H](C)O)[C@@H](C)O)C(C)C)C(=O)N[C@@H](CC(N)=O)C(=O)N[C@H](C(N)=O)[C@@H](C)O
notes: also called peptide no
IC50 (human glucagon receptor [2]): 13.3 nM

AEGTFTSEYSKYLDERRAKDFVQWLMDT-NH2 (lactam 15-19) [[A2E3, E9, E16K20(Lactam), D28]G(2-29)]
Glucagon IC50 (human glucagon receptor [7]): 63 nM
Glucagon antagonism IC50 (inhibit 0.2-0.8 nM glucagon) (human glucagon receptor [8]): 63.2 nM
Glucagon antagonism IC50 (inhibit 0.8 nM glucagon) (human glucagon receptor [9]): 63.2 nM
Glucagon antagonism IC50 (inhibit 0.8 nM glucagon) (human glucagon receptor [10]): 63.2 nM
Glucagon antagonism IC50 (inhibit 0.8 nM glucagon) (human glucagon receptor [11]): 151 nM

B3: K40-chol G(6-40) (peptide)
peptide: FTSDYSKYLDERRAKDFVQWLMDTGPSSGAPPPSK
modifications: PLA at position 6; lactam bridge Glu16-Lys20; Lys40(COCH2CH2S-Chol) cholesterol conjugate; C-terminal amide
GLP-1 agonism EC50 [12]: 47 nM
Glucagon antagonism IC50 (inhibit 0.4 nM glucagon) [13]: 312 nM

B4: [PLA^4, E^9]Glucagon(aa4-29)-NH2 (peptide)
peptide: [PhLac]TFTSEYSKYLDSRRAQDFVQWLMNT-NH2
modifications: N-terminus assumed
SMILES: CSCC[C@H](NC(=O)[C@H](CC(C)C)NC(=O)[C@H](Cc1c[nH]c2ccccc12)NC(=O)[C@H](CCC(N)=O)NC(=O)[C@@H](NC(=O)[C@H](Cc1ccccc1)NC(=O)[C@H](CC(=O)O)NC(=O)[C@H](CCC(N)=O)NC(=O)[C@H](C)NC(=O)[C@H](CCCNC(=N)N)NC(=O)[C@H](CCCNC(=N)N)NC(=O)[C@H](CO)NC(=O)[C@H](CC(=O)O)NC(=O)[C@H](CC(C)C)NC(=O)[C@H](Cc1ccc(O)cc1)NC(=O)[C@H](CCCCN)NC(=O)[C@H](CO)NC(=O)[C@H](Cc1ccc(O)cc1)NC(=O)[C@H](CCC(=O)O)NC(=O)[C@H](CO)NC(=O)[C@@H](NC(=O)[C@H](Cc1ccccc1)NC(=O)[C@@H](NC(=O)[C@@H](O)Cc1ccccc1)[C@@H](C)O)[C@@H](C)O)C(C)C)C(=O)N[C@@H](CC(N)=O)C(=O)N[C@H](C(N)=O)[C@@H](C)O
IC50 (cAMP, inhibit 0.8 mM Glucagon) (human glucagon receptor [14]): 84.4 nM

B5: [desHis^1, desPhe^6, hCys^9(SO3-), Phe^25, Leu^27] Glucagon-NH2 (peptide)
peptide: SQGTTS[Abu(4-SO3H)]YSKYLDSRRAQDFVQFLLNT-NH2
modifications: N-terminus assumed
SMILES: CC(C)C[C@H](NC(=O)[C@H](Cc1ccc(O)cc1)NC(=O)[C@H](CCCCN)NC(=O)[C@H](CO)NC(=O)[C@H](Cc1ccc(O)cc1)NC(=O)[C@H](CCS(=O)(=O)O)NC(=O)[C@H](CO)NC(=O)[C@@H](NC(=O)[C@@H](NC(=O)CNC(=O)[C@H](CCC(N)=O)NC(=O)[C@@H](N)CO)[C@@H](C)O)[C@@H](C)O)C(=O)N[C@@H](CC(=O)O)C(=O)N[C@@H](CO)C(=O)N[C@@H](CCCNC(=N)N)C(=O)N[C@@H](CCCNC(=N)N)C(=O)N[C@@H](C)C(=O)N[C@@H](CCC(N)=O)C(=O)N[C@@H](CC(=O)O)C(=O)N[C@@H](Cc1ccccc1)C(=O)N[C@H](C(=O)N[C@@H](CCC(N)=O)C(=O)N[C@@H](Cc1ccccc1)C(=O)N[C@@H](CC(C)C)C(=O)N[C@@H](CC(C)C)C(=O)N[C@@H](CC(N)=O)C(=O)N[C@H](C(N)=O)[C@@H](C)O)C(C)C
notes: His1 and Phe6 deleted; also called Cmpd; 5B
cAMP Induction EC50 (human glucagon receptor [3]): 3210 nM
cAMP Inhibition IC50 (human glucagon receptor [3]): 9220 nM
IC50 (human glucagon receptor [4]): 53.3 nM

SQGTFTS[NSG‑1]YSKYLDSRRAQDFVQWLMNT-NH2 (reading uncertain, also called peptide no) [[(NSG-1)^9] Glucagon(aa2-29)-NH2]
IC50 (human glucagon receptor [2]): 983 nM

FTSEYSKYLDERRAQDFVQWLMNTGPSSGAPPPS (PLA at position 6; C-terminal amide) [[PLA6, E9, E16]G(6-39)]
GLP-1 agonism EC50 [12]: 1760 nM
Glucagon antagonism IC50 (inhibit 0.2-0.8 nM glucagon) [13]: 58.1 nM

B6: [PLA^5, E^9]Glucagon(aa5-29)-NH2 (peptide)
peptide: [PhLac]FTSEYSKYLDSRRAQDFVQWLMNT-NH2
modifications: N-terminus assumed
SMILES: CSCC[C@H](NC(=O)[C@H](CC(C)C)NC(=O)[C@H](Cc1c[nH]c2ccccc12)NC(=O)[C@H](CCC(N)=O)NC(=O)[C@@H](NC(=O)[C@H](Cc1ccccc1)NC(=O)[C@H](CC(=O)O)NC(=O)[C@H](CCC(N)=O)NC(=O)[C@H](C)NC(=O)[C@H](CCCNC(=N)N)NC(=O)[C@H](CCCNC(=N)N)NC(=O)[C@H](CO)NC(=O)[C@H](CC(=O)O)NC(=O)[C@H](CC(C)C)NC(=O)[C@H](Cc1ccc(O)cc1)NC(=O)[C@H](CCCCN)NC(=O)[C@H](CO)NC(=O)[C@H](Cc1ccc(O)cc1)NC(=O)[C@H](CCC(=O)O)NC(=O)[C@H](CO)NC(=O)[C@@H](NC(=O)[C@H](Cc1ccccc1)NC(=O)[C@@H](O)Cc1ccccc1)[C@@H](C)O)C(C)C)C(=O)N[C@@H](CC(N)=O)C(=O)N[C@H](C(N)=O)[C@@H](C)O
IC50 (cAMP, inhibit 0.8 mM Glucagon) (human glucagon receptor [14]): 328 nM

Ac-[PhLac]TSEYSKYLDSRRAQDFVQWLMNT-NH2 [[Ac-PLA^6, E^9]Glucagon(aa6-29)-NH2]
IC50 (cAMP, inhibit 0.8 mM Glucagon) (human glucagon receptor [14]): 38.1 nM

B7: [(CSA-1]^9] Glucagon(aa2-29)-NH2 (peptide)
peptide: SQGTFTS[CSA‑1]YSKYLDSRRAQDFVQWLMNT-NH2
modifications: N-terminus assumed
SMILES: CSCC[C@H](NC(=O)[C@H](CC(C)C)NC(=O)[C@H](Cc1c[nH]c2ccccc12)NC(=O)[C@H](CCC(N)=O)NC(=O)[C@@H](NC(=O)[C@H](Cc1ccccc1)NC(=O)[C@H](CC(=O)O)NC(=O)[C@H](CCC(N)=O)NC(=O)[C@H](C)NC(=O)[C@H](CCCNC(=N)N)NC(=O)[C@H](CCCNC(=N)N)NC(=O)[C@H](CO)NC(=O)[C@H](CC(=O)O)NC(=O)[C@H](CC(C)C)NC(=O)[C@H](Cc1ccc(O)cc1)NC(=O)[C@H](CCCCN)NC(=O)[C@H](CO)NC(=O)[C@H](Cc1ccc(O)cc1)NC(=O)[C@H](CSCC(=O)O)NC(=O)[C@H](CO)NC(=O)[C@@H](NC(=O)[C@H](Cc1ccccc1)NC(=O)[C@@H](NC(=O)CNC(=O)[C@H](CCC(N)=O)NC(=O)[C@@H](N)CO)[C@@H](C)O)[C@@H](C)O)C(C)C)C(=O)N[C@@H](CC(N)=O)C(=O)N[C@H](C(N)=O)[C@@H](C)O
notes: also called peptide no
IC50 (human glucagon receptor [2]): 12.7 nM
